How the values were obtained:
Assay in all cases: inhibition of PDE activity
[1] = target: PDE5/6cd I802T/P803D/M804L (human) (UniProt O76074)
PDE5/6cd P803D (human) = PDE5/6cd P803D (human) (UniProt O76074)
PDE5/6cd F823A (human) = PDE5/6cd F823A (human) (UniProt O76074)
PDE5/6cd Q799I (human) = PDE5/6cd Q799I (human) (UniProt O76074)
PDE5/6cd I802A (human) = PDE5/6cd I802A (human) (UniProt O76074)
PDE5/6cd M804L (human) = PDE5/6cd M804L (human) (UniProt O76074)
[2] = target: PDE5/6cd L792R/V796E/Q799I (human) (UniProt O76074)
[3] = target: PDE5/6cd I802A//M804A (human) (UniProt O76074)
PDE5/6cd I802T (human) = PDE5/6cd I802T (human) (UniProt O76074)
PDE5/6cd V796E (human) = PDE5/6cd V796E (human) (UniProt O76074)
[4] = target: PDE5/6cd I802A/P803D/M804L (human) (UniProt O76074)
[5] = target: chimeric PDE5/PDE6 catalytic domain PDE5/6cd (human) (UniProt O76074)
PDE5/6cd M804A (human) = PDE5/6cd M804A (human) (UniProt O76074)
PDE5/6cd L792R (human) = PDE5/6cd L792R (human) (UniProt O76074)
PDE5cd A823F = PDE5cd A823F (human, UniProt O76074 535-860, A823F)
[6] = target: PDE5cd T802I/D803P/L804M/A823F (human, UniProt O76074 535-860, T802I | D803P | L804M | A823F)
[7] = target: PDE5cd R792L/E796V/I799Q/A823F (human, UniProt O76074 535-860, R792L | E796V | I799Q | A823F)

Ki [1] | Ki (PDE5/6cd P803D (human)) | Ki (PDE5/6cd F823A (human)) | Ki (PDE5/6cd Q799I (human)) | Ki (PDE5/6cd I802A (human)) | Ki (PDE5/6cd M804L (human)) | Ki [2] | Ki [3] | Ki (PDE5/6cd I802T (human)) | Ki (PDE5/6cd V796E (human)) | Ki [4] | Ki [5] | Ki (PDE5/6cd M804A (human)) | Ki (PDE5/6cd L792R (human)) | Ki (PDE5cd A823F) | maximal inhibition (%) (PDE5cd A823F) | Ki [6] | maximal inhibition (%) [6] | Ki [7] | maximal inhibition (%) [7] | Molecule
21.8 µM | 6.7 µM | 15.1 µM | 3.5 µM | 12.1 µM | 2 µM | 6 µM | 26.2 µM | 8.6 µM | 1.8 µM | 25.5 µM | 1.7 µM | 10.3 µM | 3.2 µM | – | – | – | – | – | – | Pγ C-terminal peptide Pγ_(63-87) (from UniProt P04972 63-87)
– | – | – | – | – | – | – | – | – | – | – | – | – | – | 44.3 µM | 52 ± 4% | 19.4 µM | 72 ± 4% | 23.5 µM | 78 ± 5% | DITVICPWEAFNHLELHELAQYGII (peptide, UniProt P04972 63-87, looked up) [Pγ C-terminal peptide Pγ_(63-87)]

— paper PMC2864356 (Biochemistry, 2010)
